“And” between values parts separate entries of the source, which are not always exact repeats. Equal values may be shown once.
Target: TrkB receptor on rat C6 glioma cells (rat, UniProt Q63604 32-821)
Experiment: cell-based or functional assay

Chain of TrkB receptor on rat C6 glioma cells (Q63604 32-821): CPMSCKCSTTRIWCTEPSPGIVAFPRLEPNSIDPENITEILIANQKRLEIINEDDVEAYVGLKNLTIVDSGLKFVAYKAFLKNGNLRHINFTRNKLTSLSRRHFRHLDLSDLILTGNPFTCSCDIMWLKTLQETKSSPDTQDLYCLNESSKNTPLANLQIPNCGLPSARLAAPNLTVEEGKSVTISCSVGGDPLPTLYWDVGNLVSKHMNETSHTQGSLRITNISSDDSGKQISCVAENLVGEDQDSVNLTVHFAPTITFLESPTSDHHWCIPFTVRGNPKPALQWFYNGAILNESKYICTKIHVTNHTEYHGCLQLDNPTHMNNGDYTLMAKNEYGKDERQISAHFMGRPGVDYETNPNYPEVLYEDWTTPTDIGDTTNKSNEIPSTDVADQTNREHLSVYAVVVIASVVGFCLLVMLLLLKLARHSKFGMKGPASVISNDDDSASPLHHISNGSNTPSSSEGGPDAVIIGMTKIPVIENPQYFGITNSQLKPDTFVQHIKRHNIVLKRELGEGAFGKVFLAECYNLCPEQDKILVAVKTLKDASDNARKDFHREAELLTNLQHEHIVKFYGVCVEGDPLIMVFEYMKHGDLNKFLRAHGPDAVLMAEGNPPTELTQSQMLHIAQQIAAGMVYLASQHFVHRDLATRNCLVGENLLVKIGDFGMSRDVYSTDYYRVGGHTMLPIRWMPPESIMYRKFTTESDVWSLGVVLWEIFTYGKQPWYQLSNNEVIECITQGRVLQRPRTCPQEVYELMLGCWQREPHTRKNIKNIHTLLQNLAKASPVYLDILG

B1: recombinant human brain-derived neurotrophic factor (BDNF) (ligand)
chain: HSDPARRGELSVCDSISEWVTAADKKTAVDMSGGTVTVLEKVPVSKGQLKQYFYETKCNPMGYTKEGCRGIDKRHWNSQCRTTQSYVRALTMDSKKRIGWRFIRIDTSCVCTLTIKRGR
In the case of B1, the “EC50, concentration of rhBDNF required to induce 50% proliferation of C6 cells (MTS assay, 48h)” value is reported as ~3 µg/mL and ~0.11 µM.

— patent EP4413993A1 (Dompe' Farmaceutici S.P.A., dated 2024)
